# Reference: a protein production outcome set (Wang et al. 2014)
# Assay: label from the status in PepcDB records
row,Sequence,protein production
1,MTADEWPQRLIRFTDWSHAEATAVEHLLPVLIAQESELAQWSFLRKHPWWRLRYRPACPDSAKALDAALDELVDAGVLASWTRGIYEPEETAFGGPAAMKIAHALFHYDSRHLLDEAARQQTVSGPRLGRRELAVLLLSVAMRAAGLDWYEQGDVWARIAAERSGDEVRSPQRHRAAVHRLMTVDVSTTSRSVARGRLAPLAEWIATFEWFGQQLADLNRQGRLERGLRAVIAHHGIFHFNRLGLAAQDQHTLSTLAKEVVMGTSDNAASTQAEGAPGATVNGVNSDTIEAPSADRLRAQLIDHLVETGCVRTPRVEEAMRTVPRHLFVPNAPLEKAYGNAPVDTKFDGSGRSISCASQPDIVAMMLEQLDVQPGQKILELGAGTGFNAGLLGYLVGETGHVTTIDVDEDIVAGARGGLAAAGIHNVEVILGDGAVGHTPNAPYDRIEATVGAHGVPHAWLDQLAPGGRLLTPLRLRGSVSRSIAFENQDGAWRSVGSQMNTFMPLRRGIADDPRLFVPLDPDHTVTLVTNGDQKVDADALGDIFRQPRTEAWTDVTFRGPESAEYLELWLTCAMPNGLSRMPAKNEAIEKGLVTAPYPSSTAVFEDGTLTYLTRRPYAKKAPDGATLYEFGVIGHGPDAEALAGDVADQIRAWDQDFRALDVGFEIQPLDAAPLAPKPGRFAFDNPLNRIVIEWQ,failed
2,MTADPTKNDPHGLGTASRPAAELAVGETETIPVIEETARIDKRVVEKGRVRVQTRTETTDDVLRETLRSDVVGVTRIPIDRVIAEGEVAPTIRTENGVTIIPVLEEVLVVEKRLILKEEVHIRQTTSGEAVEVPVTLRRQHAVVERVSADGHVSEIPPKEQTP,failed
3,MTAEIDIQNSIRLELSRHGHYVFRANVGKVRMPNGRIFDTGLPKGFPDLFGFRGTDGKMFFIEVKNEIGKLRQEQKNFQQAMEITPAIGVARSAEEALKIVEGLEHHHHHH,failed
4,MTAEVLIGDGDVRLSPHPLRAIVLGEVHARPFTALSLPARVLHFAFDTSGQRAAADRAAMISFCESRGLQPPPPGEKHHRANFGTTTLRWEQHSEFTTYTWEIPADPAGVPFHPEASSLASPMRLLPQPGPLLVAVDLHAMPEDPPRTSPERLFDRASLAVAENSDGAALFATDFQPGPSGFVRVLVIDRGMSAERAGALVQRVLEVETYRTLALLGLPEAQRLAPSIAASERRLAEVTAEMRRAGDLANNNKLLQELTELAAEVEAGAAASLYRFGASRAYDEIMNGRLATLGERKVGGLPTWSSFLARRMKPAMRTCATTEARQSDLSLKLARAANLLRTRVDVEVEQQNQELLKSMNARTRLQLRLQTTVEGLSTAAITYYVVGLFGYMVKGAAEAGRLKIDPNLLTAGFVPIAALVIWWTIRRIRKKHIPDVD,failed
5,MTAFDPFEDFGDTEEIGERLNDADPAVRRLAVIDLAETANADVLPHLLTAVADPDATVRLQVAIALSEFDTVEAAAGLARLAADQDLTVAQAAADSLAELKDPATADSILPLVSHGRAFVRAAGFRGLKALRSRGALAPALAAMRDEDANVRAQALGVVAYLKLEETLPSLIAATRDAEAIVRSVAVNALSFTSQPAAAAAVTAALDDENWQVRAAAADTLGRIGQTSAVDGLTAGLSDEYWQVRQKCLNALGKLKAQSAVRQISELLTSDLASLRKESAAALGEIADPSSRAVLMHHIGDADPDVRKTVCWALTRLG,failed
6,MTAFRQRPLRLGHRGAPLKAKENTLESFRLALEAGLDGVELDVWPTRDGVFAVRHDPDTPLGPVFQVDYADLKAQEPDLPRLEEVLALKEAFPQAVFNVELKSFPGLGEEAARRLAALLRGREGVWVSSFDPLALLALRKAAPGLPLGFLMAEDHSALLPCLGVEAVHPHHALVTEEAVAGWRKRGLFVVAWTVNEEGEARRLLALGLDGLIGDRPEVLLPLGG,not failed
7,MTAGGTMTLKITFLGSGSSFAIGPENYQSNVLLELENDTLLIDAGTDIKYSLRDQGLSYKDIKNIYISHLHYDHCGGLEWFALITYFDPNLSHKPCLIASDKIINELWDKSLSGGLSTLPHERANLSAFFDVKAVKQYEGFVWRSIKFKLVQTVHYYSEYELMPSFGLIFSYNKSRILFTSDTQSCPVQLISFYEESDIIFHDCETTESKSGVHAHYSELVKLPSHLKKKMWLYHYNPGKLPNAKKDGFLGFVAKGQSFVF,failed
8,MTAKAACSDFLHFFRSWVSNPLRVAAIAPSGDSLARIMTSEIAALDGPIIELGPGTGVFTRALLARGVSEADLTLIEYGPEFITSLQARFPTARVLQMDAAHLAHADIFEGEPVGAVVSGLPLLSMSPRKIASILAGAFAYMRPGGAVYQFTYGPRCPVPRPILDRLGLKAVRIGGTVRNLPPASVYRISRRKPLELSRERFSYRSSAADVDDVAAFSNETGG,failed
9,MTAKPAVVGGFILGALALGVAAIVLFGGQRLFTSTREVVVFFNESVAGLQVGAPVTFHGVPVGTVKTIALRVSTRDLSARIPVVLELQPDQISWEGEHLNGDDDTYQRLIAAGLRAQLAPQSIVTGQMRVDLDFKPGTSAALSGEPTDLPEIPAVASDLDELRDKVTELPLRDLVETAQKTLANVQALTSSLNTRIPTLTTSAEQSVAVATQTLVTTQEAVRQIQADASVTLKELSDLLADLHRQVDARGGELGKTLSAAERTARQAESLMISLNELAGPRARFRADLEAAARDLSASASSTRSFTRTLERDPSALLSGDTKR,failed
10,MTAPLHLDSLFPSLDAIPEQYRPDAPIEQRDYLVDGQLRHWDGPLAPVRSPVFLAEADGERQVILGSTPLLDADAALAALDAAVRAYDHGQGLWPNLRVAERIQHVERFLARMREQREAVVKLLMWEIGKNLKDSEKEFDRTCDYIVDTIEALKELDRHSSRFELEQGTLGQIRRVPLGVALCMGPYNYPLNETFTTLIPALIMGNTVVFKPAKFGVLLIRPLLEAFRDSFPPGVINVIYGRGRETVSALMASGKVDVFAFIGTHSGASDLKKLHPRPHRLRAALGLDAKNPGIVLPQVDLDNAVNEAVTGALSFNGQRCTALKILFVHESVLRPFLDKFSARLASLKPGMPWEPGVALTPLPEPGKVDYLEGLLNDALAKGARVVNAGGGEHRQSFFYPALLSPVSPDMRLYHEEQFGPLVPVVPYRELDEVIDYVLRSDYGQQLSLFGNDPAQIGRLVDAFANQVGRINVNAQCQRGPDSYPFNGRKNSAEGTLSVHDALRVFSIRTLVATRDTEANKTLVSEII,failed
11,MTAQIRLAEPADLNDDTLRARAVAAARGDQRFDVLITGGTLVDVVTGELRPADIGIVGALIASVHEPASRRDAAQVIDAGGAYVSPGLIDTHMHIESSMITPAAYAAAVVARGVTTIVWDPHEFGNVHGVDGVRWAAKAIENLPLRAILLAPSCVPSAPGLERGGADFDAAILADLLSWPEIGGIAEIMNMRGVIERDPRMSGIVQAGLAAEKLVCGHARGLKNADLNAFMAAGVSSDHELVSGEDLMAKLRAGLTIELRGSHDHLLPEFVAALNTLGHLPQTVTLCTDDVFPDDLLQGGGLDDVVRRLVRYGLKPEWALRAATLNAAQRLGRSDLGLIAAGRRADIVVFEDLNGFSARHVLASGRAVAEGGRMLVDIPTCDTTVLKGSMKLPLRMANDFLVKSQGAKVRLATIDRPRFTQWGETEADVKDGFVVPPEGATMISVTHRHGMAEPTTKTGFLTGWGRWNGAFATTVSHDSHNLTVFGGNAGDMALAANAVIGTGGGMAVASEGKVTAILPLPLSGLVSDAPLEEVARAFEDLREAVGKVVEWQPPYLVFKACFGATLACNIGPHQTDMGIADVLTGKVMESPVIEVLG,failed
12,MTARNILSYSYEEYVEKITAFHGYPAPGVLIGGFMVDLAVKNLPEGILYDAICETRTCLPDAVQLLTPCTFGNGWLTVLPMGLFAVSLYDKFTGEGVRVFLDVEKMGPWQEIRNWFLKLKTKKEQDSERLFKEIREAGPDILELRNVKLKPGFLEKKHKGKIVLCPQCREAYPAQDGELCLSCQGGSPYL,not failed
13,MTASFPTRVYLLRHAKAAWAAPGERDFDRGLNEAGFAEAEIIADLAADRRYRPDLILSSTAARCRQTTQAWQRAFNEGIDIVYIDEMYNARSETYLSLIAAQTEVQSVMLVGHNPTMEATLEAMIGEDLLHAALPSGFPTSGLAVLDQDDSAASGKNRWRLIDFLAPGK,not failed
14,MTASIFSGVIPALMTPCRQDRTPDFDALVRKGKELIADGMSAVVYCGSMGDWPLLTDEQRMEGVERLVKAGIPVIVGTGAVNTASAVAHAVHAQKVGAKGLMVIPRVLSRGSVIAAQKAHFKAILSAAPEIPAVIYNSPYYGFATRADLFFALRAEHKNLVGFKEFGGPADMRYAAENITSRDDEVTLMIGVDTAVVHGFVNCGATGAITGIGNVLPKEVIHLCKLSQAAAKGDADARARALELEQALAVLSSFDEGPDLVLYFKYMMVLKGDKEYTLHFNETDALTDSQRGYVEAQFKLFNSWYADWSKLPGAVQTCKAA,not failed
15,MTASVTASVTAPETAPVPIVLAGARGHGRWHLDNIRRLQDRGLVRLAGICELTPLAEEELDGLGVPEQSADFGSLLDATGAAIAVICTPIPTHTDLALTAAERGVHLLLEKPPAPSFAEFRRMADGVAAAGVVCQIGFQSLGSGAVPGIRKLIAEGALGTVAGIGAAGAWARDEAYYRRAPWAGKRRLNGVDVIDGVLTNPLAHAVATALALDGSTRAEDVTDIETELLRANDIESDDTSCVRVTTKSGGRITVAATLCAEEPDEPYVLVHGDRGRITFWYKQDRVLVQRSGHGPQEIEYDRTDLLENLVGHLTHGAELLVTPESTGAFMKVVEAIRQAPDPVALPGDAWELIPGENRRVVRGVDGLVAAAADTLALYSELGASWALPNEVSSR,failed
16,MTATLQVTIVVGYLLVALAIGLLAYRVTERAAEDFYLASRTFGTAVLLFTVFATLLSAFTFFGGPDNAYAFGPEWILVMGLMDGLIFAILWYLIGYKQWLLGQRHGYVTLGEMFGDRFGSTGVRALVAVVSLFWLFPYVMLQQIGAGGALAALTDGVVPFWAGASLITGFMILYVVLAGMRGIAWTDTLQGAFMLCMVWAALVWVLVAVDGGVSTINAGLTESSPEFFALGSDFYTPGTMLTFAISIAFGVAMFPQVNQRFFTAASETVLKRSFALWPLLVLLLFVPAFLLGTWAQGLGLQADVGAGESILPILLDTYTPAWFAALVIAGAIAAMMSSSDSMLLSGSSYFTRDVYRPLVDDGITERQEDRLGRIGVAVFAIAALAASVWAEAEAFGAVAVGSVLVEIGDLAFGGFAQLTVPVLVALYWRGTTKQGLVAGILLPQAVYLAFNFLPATEVGSAMLFSETYLGWGISIYCLLLGLVATVVVSAATTKADSERPALFFESLRRG,failed
17,MTDAEYGLPRRSLLAGAAGAGAAFALPAGAAQAAPAASPQAGAERRHPRNWPDPEPYGAADTRADLWPREDNSFVLPLELRPRDQERGTVWMRDTYVNCFVVDGRPLYVATGTTRVPGLEAAGPWNDGIFVWLAPSLDGPWRLADTTGIRPGAERGKVWSPEFAGENRPGRTVVAPWQEYWHDEQFGKRGQAWAPELHYFRDTWYLVACMGDHSRKVGSFMLVSEGGVEGPYRLVEGNLDKPFGDSFIGGPKFIEPGAYHHIDGGLFSEGDDAWLVLHNDLYAKFRDDMEDIVTTTDLPRFRQTPYSPEPYLEGAYVFKYRGKYHLVHAAWDRTSVNADGTVRQAYDVPAAGRVQYQYDAIVAVADRFEGPYSKRYTAGVGAGHNNFFVDHRGGLWATYFLNPAAGYWSGASRVAESAVPGVVRLEWTGPAGGRLYVKRGSGGPGSGH,failed
18,MTDAPATPYAARTPVHEQHLDGFGTVRVLPLDPAADAAVVHGWVGEERAAFWGMNDLTRDQVAAVYAHMDTLDTHHAFLVVKDGEPAALLQTYDPAADRVSECYAAEPGDIGVHLLLAPAGAEGTRPGWTAALSGALMAYVLLGLDRTRIVVDPDVANEKAIARFLKQGFTAGPAVVLPEVDLPDVYLPEKKAQLAFLRREVAFGA,failed
19,MTDEIISYQKAKLAKNLAISTASKWLFVHSSTGGSATNLSIAQYATLINGIQSAIKCQVILTAGKGERERAVELAEKLTDQNVVIYDKNDGLADFTRSLACADLFIAGSTGPLHIAGGLNIPTVGFYPSRLSATPRRWRPINQVDKHLAFCPPSGKQCEMDLTLISIEQALTSVIPFIKKMWQLSLEHHHHHH,not failed
